This data set deals with the molecule itself. The experiment in a line: cryo-EM structure; α and β mixed 1:1.5 (α:β) with 1 mM dATP and 1 mM CDP on ice in 50 mM HEPES pH 7.6, 15 mM MgCl2, 1 mM EDTA; chameleon 54 ms dispense-to-plunge, 6 mg/mL protein (4.3 Å); also Vitrobot grid, 0.5 mg/mL (5.6 Å); dATP-inactivating conditions.

B1: Neisseria gonorrhoeae class Ia ribonucleotide reductase NrdB (β) subunit, hydroxyurea-inactivated (met-β2) (enzyme, UniProt A0ACH0F974 1-377, looked up)
chain: MSYSTFPKTKNDALKEPMFFGQPVNVARYDQQKYEVFEKLIEKQLSFFWRPEEIDVSRDRIDYANLPEHEKHIFISNLKYQTLLDSIQGRSPNVALLPLVSIPELETWVETWSFSETIHSRSYTHIIRNIVNDPSVVFDDIVENEYITARAEDIACYYDDLIEYTQYYNLLGEGVHNVGGKPVTVSLRGLKKKLYLCLMCVNVLEAIRFYVSFACSFAFAERELMEGNAKIIKLIARDEALHLTGTQHMLNLMRSGVDDPEMAEIAAELQDECFQLFKKAAEQEKEWAAYLFKDGSMIGLNKEILSQYVEYITNLRMQAVGLPAGFEGANQNPIPWINAWLSSDNVQVAPQEVEISSYLIGQIDSEVNTDDLGDFEL
notes: N. gonorrhoeae class Ia RNR radical-generating subunit NrdB (β); 377 residues as printed (model holds four residues of the histidine tag, residues 1-346 and 374-376 of 377); expected MW 43253 Da; met-β2: diiron cluster reconstituted (1.8 +/- 0.3 iron per monomer), tyrosyl radical quenched with hydroxyurea; also called NgRNR β; His6-TEV-NgRNR β; source: E. coli T7 Express, pET30a(+), purified …
Regarding B1, the binding result is “binds”.

These data come from PMC8994553, “Effects of chameleon dispense-to-plunge speed on particle concentration, complex formation, and final resolution: A case study using the Neisseria gonorrhoeae ribonucleotide reductase inactive complex” (Journal of structural biology, 2021).
